# Measurements from article PMC2929593.
# Experiments:
# Test in all cases: DTNB continuous spectrophotometric thioesterase assay
# Assay type in all cases: biochemical, Escherichia coli
# Conditions in all cases: pH 7.5, 25 °C
# [1] = substrate: CC(=O)SCCNC(=O)CCNC(=O)[C@H](O)C(C)(C)COP(=O)(O)OP(=O)(O)OC[C@H]1O[C@@H](n2cnc3c(N)ncnc32)[C@H](O)[C@@H]1OP(=O)(O)O
# [2] = substrate: CCCCCCCCCC(=O)SCCNC(=O)CCNC(=O)[C@H](O)C(C)(C)COP(=O)(O)OP(=O)(O)OC[C@H]1O[C@@H](n2cnc3c(N)ncnc32)[C@H](O)[C@@H]1OP(=O)(O)O
# [3] = substrate: CCC(=O)SCCNC(=O)CCNC(=O)[C@H](O)C(C)(C)COP(=O)(O)OP(=O)(O)OC[C@H]1O[C@@H](n2cnc3c(N)ncnc32)[C@H](O)[C@@H]1OP(=O)(O)O
# [4] = substrate: CC(C)(COP(=O)(O)OP(=O)(O)OC[C@H]1O[C@@H](n2cnc3c(N)ncnc32)[C@H](O)[C@@H]1OP(=O)(O)O)[C@@H](O)C(=O)NCCC(=O)NCCSC(=O)Cc1cccc(O)c1
# [5] = substrate: CCCCCCCCCCCC(=O)SCCNC(=O)CCNC(=O)[C@H](O)C(C)(C)COP(=O)(O)OP(=O)(O)OC[C@H]1O[C@@H](n2cnc3c(N)ncnc32)[C@H](O)[C@@H]1OP(=O)(O)O
# [6] = substrate: CCCCCCCCCCCCCCCC(=O)SCCNC(=O)CCNC(=O)[C@H](O)C(C)(C)COP(=O)(O)OP(=O)(O)OC[C@H]1O[C@@H](n2cnc3c(N)ncnc32)[C@H](O)[C@@H]1OP(=O)(O)O
# [7] = substrate: CC(C)(COP(=O)(O)OP(=O)(O)OC[C@H]1O[C@@H](n2cnc3c(N)ncnc32)[C@H](O)[C@@H]1OP(=O)(O)O)[C@@H](O)C(=O)NCCC(=O)NCCSC(=O)c1cccc(O)c1
# [8] = substrate: CC(C)(COP(=O)(O)OP(=O)(O)OC[C@H]1O[C@@H](n2cnc3c(N)ncnc32)[C@H](O)[C@@H]1OP(=O)(O)O)[C@@H](O)C(=O)NCCC(=O)NCCSC(=O)c1ccc(O)cc1
# [9] = substrate: CCCCCC(=O)SCCNC(=O)CCNC(=O)[C@H](O)C(C)(C)COP(=O)(O)OP(=O)(O)OC[C@H]1O[C@@H](n2cnc3c(N)ncnc32)[C@H](O)[C@@H]1OP(=O)(O)O
protein,measurement,setting,value
EntH (Escherichia coli K-12) (protein) MIWKRHLTLDELNATSDNTMVAHLGIVYTRLGDDVLEAEMPVDTRTHQPFGLLHGGASAALAETLGSMAGFMMTRDGQCVVGTELNATHHRPVSEGKVRGVCQPLHLGRQNQSWEIVVFDEQGRRCCTCRLGTAVLG,Km,[1],800 ± 90 µM
same,kcat,[1],0.0044 ± 0.0002 s⁻¹
same,Km,[2],49 ± 3 µM
same,kcat,[2],0.0267 ± 0.0004 s⁻¹
same,Km,[3],400 ± 40 µM
same,kcat,[3],0.0125 ± 0.0006 s⁻¹
same,Km,[4],37 ± 1 µM
same,kcat,[4],2.1 ± 0.5 s⁻¹
same,Km,[5],45 ± 2 µM
same,kcat,[5],0.0281 ± 0.0003 s⁻¹
same,Km,[6],55 ± 9 µM
same,kcat,[6],0.085 ± 0.004 s⁻¹
same,Km,[7],35 ± 1 µM
same,kcat,[7],1.21 ± 0.01 s⁻¹
same,Km,[8],21 ± 2 µM
same,kcat,[8],1.55 ± 0.05 s⁻¹
same,Km,[9],350 ± 90 µM
same,kcat,[9],0.058 ± 0.001 s⁻¹
